The values below come from patent publication US20250154264A1 (GENOVAC ANTIBODY DISCOVERY, published 2025).

In experiment [1] the target is T1, human ALK1 (Activin A receptor like type 1), N-terminally tagged, on transiently transfected cells (human, UniProt P37023 22-503).
T1 construct: also called ALK1 of human; ACVRL1; not shown: N-terminal tag used for the expression control
Put plainly: flow cytometry, hybridoma supernatant on transiently transfected cells, PE goat anti-rat secondary. Here is the method:
(§1) Various isolated antibodies were assessed for the ability to bind ALK1 from mouse (murine), human, and cyno monkey. Flow cytometry was used to measure fluorescence intensity produced by fluorescent-labeled secondary antibodies detecting primary anti-ALK1 antibodies that bind to specific cell-associated ALK1 molecules. More precisely hybridoma supernatants containing primary antibodies were tested for binding to transiently transfected cells expressing ALK1 of human, cyno monkey and mouse by flow cytometry. The signals were generated by use of secondary, PE-labelled goat anti-rat antibodies. In addition to testing the supernatants on non-transfected cells, ALK1 of human, cyno monkey and mouse-transfected cells were incubated only with the secondary antibody (without supernatants) as a negative control.
For orientation: In flow cytometry, cells or beads pass a laser one at a time.

The target in experiment [2] is T2, murine ALK1, N-terminally tagged, on transiently transfected cells (mouse, UniProt Q61288 23-502).
T2 construct: whole, on cells; also called mouse ALK1; murine orthologue; not shown: N-terminal tag used for the expression control
T2 sequence (looked up): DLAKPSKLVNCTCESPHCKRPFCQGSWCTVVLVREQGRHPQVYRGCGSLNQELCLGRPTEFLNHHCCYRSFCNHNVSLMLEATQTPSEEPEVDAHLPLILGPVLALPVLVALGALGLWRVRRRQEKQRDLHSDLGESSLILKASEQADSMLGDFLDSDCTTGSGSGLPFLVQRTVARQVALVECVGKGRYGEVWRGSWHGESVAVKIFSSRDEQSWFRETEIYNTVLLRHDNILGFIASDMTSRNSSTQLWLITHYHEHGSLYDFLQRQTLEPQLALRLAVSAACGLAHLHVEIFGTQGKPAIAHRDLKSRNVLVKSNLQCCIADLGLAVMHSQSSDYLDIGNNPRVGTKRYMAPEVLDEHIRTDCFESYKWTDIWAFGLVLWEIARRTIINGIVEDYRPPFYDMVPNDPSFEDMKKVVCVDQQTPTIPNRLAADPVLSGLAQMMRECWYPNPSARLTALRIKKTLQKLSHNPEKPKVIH
The description is as above. Here is the method:
as §1

In experiment [3] the target is T3, human ALK5 on transiently transfected cells (human, UniProt P36897 34-503).
T3 construct: whole, on cells; also called ALK5 of human
T3 sequence (looked up): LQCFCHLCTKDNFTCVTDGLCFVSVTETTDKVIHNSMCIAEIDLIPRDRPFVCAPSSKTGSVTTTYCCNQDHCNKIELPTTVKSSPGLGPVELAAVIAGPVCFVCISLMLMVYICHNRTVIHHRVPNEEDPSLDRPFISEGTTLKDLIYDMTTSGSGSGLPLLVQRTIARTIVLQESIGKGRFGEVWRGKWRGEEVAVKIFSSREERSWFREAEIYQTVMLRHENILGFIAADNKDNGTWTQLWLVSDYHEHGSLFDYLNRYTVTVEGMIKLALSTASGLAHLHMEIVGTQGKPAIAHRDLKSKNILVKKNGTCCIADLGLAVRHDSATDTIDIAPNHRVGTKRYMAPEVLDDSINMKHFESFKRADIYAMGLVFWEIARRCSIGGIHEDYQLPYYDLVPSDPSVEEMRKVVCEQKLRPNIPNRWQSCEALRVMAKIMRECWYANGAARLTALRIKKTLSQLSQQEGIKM
Put plainly: flow cytometry, hybridoma supernatant on transiently transfected cells (Example 3). The method, then: as §1, with “Flow” for “Various isolated antibodies were assessed for the ability to bind ALK1 from mouse (murine), human, and cyno monkey. Flow”, “cell-associated ALK5” for “cell-associated ALK1”, “expressing ALK5” for “expressing ALK1”, “of human” for “of human, cyno monkey”, “cells, ALK5” for “cells, ALK1”

T1 sequence (P37023 22-503): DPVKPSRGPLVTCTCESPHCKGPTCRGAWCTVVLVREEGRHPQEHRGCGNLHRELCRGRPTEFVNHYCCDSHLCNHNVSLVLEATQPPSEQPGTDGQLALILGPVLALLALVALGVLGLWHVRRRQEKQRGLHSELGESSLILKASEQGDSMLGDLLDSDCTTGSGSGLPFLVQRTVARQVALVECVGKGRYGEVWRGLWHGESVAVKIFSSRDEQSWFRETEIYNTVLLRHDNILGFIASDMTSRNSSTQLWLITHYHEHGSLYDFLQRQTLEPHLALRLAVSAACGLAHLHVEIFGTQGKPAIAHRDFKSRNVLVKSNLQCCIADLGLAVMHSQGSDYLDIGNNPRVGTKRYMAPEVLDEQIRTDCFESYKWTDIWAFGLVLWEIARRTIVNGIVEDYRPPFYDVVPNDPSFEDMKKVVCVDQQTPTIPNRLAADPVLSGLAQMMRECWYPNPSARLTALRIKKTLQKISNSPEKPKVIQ

B1: BVO-A-9F7-A10 (antibody, V domains shown)
VH: QVQLQQWGAGLLKPSETLSLTCAVYGGSFSSSYWNWIRQPPGKGLEWIGEVNHSGSTNYNPSLKSRVTISLDTSKNQFSLKLSSVTAADTAVYYCARSPRSGRIVGAVFDYWGQGTLVTVSS
VL: SYVLTQPPSVSVAPGQTARITCGGNNIGPKSVHWYQQKPGQAPVLVVYDDSDRPSGIPERFSGSNSGNTATLTISRVEAGDEADYYCQVWDSSNDHVVFGGGTKLTVL
notes: Tested as OmniRat hybridoma supernatant and detected with goat anti-rat secondary antibody; also called BVO-A-9E7-A10
For B1, the binding result was “binds” in experiment [1], “binds” in experiment [2] and “no binding” in experiment [3].

B2: BVO-B-1H7-E3 (antibody, V domains shown)
VH: QLQLQESGPGLVKPSETLSLTCTVSGGSISSRSYYWGWIRQPPGKGLEWIGNIYYSGSAFYNPSLKSRVTISVDTSKNQFSLKLSSVTAADTAVYYCARWDNWDVGAFDIWGQGTMVTVSS
VL: QSALTQPPSASGSPGQSVTISCTGTSSDVGGYNYVSWYQQHPGKAPKLMIYEVSKRPSGVPDRFSGSKSGNTASLTVSGLQAEDEADYYCTSFAGSNNWVFGGGTKLTVL
notes: Tested as OmniRat hybridoma supernatant and detected with goat anti-rat secondary antibody
For B2, the binding result in experiment [1] is on record as “binds”; in experiment [2], “binds”; in experiment [3], “no binding”.
